This note sets out measurements from patent US20230070731A1, “COMPOSITIONS FOR SMALL MOLECULE CONTROL OF PRECISE BASE EDITING OF TARGET NUCLEIC ACIDS AND METHODS OF USE THEREOF” (THE TRUSTEES OF THE UNIVERSITY OF PENNSYLVANIA, priority 2020, published 2023).

The subject of this test is BL21(DE3) E. coli. In words: Bacterial DNA deaminase rifampicin mutagenesis assay (acquired rifampin resistance). It counts as cell-based. To be noted: expression in E. coli. On the procedure: In initial studies, a foreign protein/domain was inserted into an enhanced hyperactive version of AID described in U.S. patent application Ser. No. 16/025,261 (See for example, SEQ ID NO: 20 of the '261 patent application) which is incorporated herein by reference as though set forth in full. This mutant version of the human DNA deaminase AID, involved in antibody maturation was assessed and the loop regions which appeared to be tolerant to insertion of control elements (e.g., Green Fluorescent Protein GFP fragments) were identified as described hereinbelow. Several candidate locations for insertion were identified. We used an E. coli-based rifampin mutagenesis assay to evaluate activity (See Kohli et al., J Biol Chem. (2009) 284:pages 22898-904). In this assay we measure the activity level of a mutator by measuring how many E. coli can be turned resistant to the antibiotic rifampin when the enzyme is turned on.
The mutation frequency of various DNA deaminases, including insertion constructs, were determined using a modified version of previously reported rifampin mutagenesis assay (Kohli, JBC 2009). […] The mutation frequencies were then calculated by the ratio of rifampicin resistant colonies to total population. […]

B1: AID*: hyperactive AID variant (K10E, F42E, T82I, D118A, R119G, K120R, A121R, H130A, R131E, F141Y, F145E, E156G) with N-terminal MBP tag (protein, UniProt Q9GZX7 1-198, looked up, variant K10E F42E T82I D118A R119G K120R A121R H130A R131E F141Y F145E E156G)
Single-stranded DNA cytosine …: MDSLLMNRREFLYQFKNVRWAKGRRETYLCYVVKRRDSATSESLDFGYLRNKNGCHVELLFLRYISDWDLDPGRCYRVTWFISWSPCYDCARHVADFLRGNPNLSLRIFTARLYFCEAGRREPEGLRRLAEAGVQIAIMTYKDYEYCWNTFVENHGRTFKAWEGLHENSVRLSRQLRRILLPLYEVDDLRDAFRTLGL
modifications: N-terminal MBP tag
In the case of B1, the “Rif^R increase relative to catalytically inactive mutant AID(E58A)” value turned out to be 265 fold.
